The text below walks through data of the supplement of paper PMC12042874.

± gives the uncertainty stated by the source.

This data set is described as follows: amyloid nucleation score (Sup35N fusion, yeast selection) (log enrichment); library NNK1; higher = more nucleation; inactive = no reads after selection. The procedure, abridged: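 The nucleation score, computed with DiMSum, is the log enrichment of output over input reads, centred on the mode score of non-aggregating sequences. Sequences with under 100 input reads were dropped. Reads were generated by Illumina sequencing of plasmid inserts from psi-negative yeast with Sup35N fused to peptides of 20 random codons, induced with 100 μM copper sulfate for 24 hours and grown 7 days at 30°C on medium lacking adenine and uracil.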
For EGYYEPVIVI, the amyloid nucleation score worked out at 0.66 ± 0.47. Substance EHNNFFICVCWSAGTSVRMI gave an amyloid nucleation score of 7.992 ± 0.063.

As to EHSPRRGAL, the amyloid nucleation score stood at 0.063 ± 0.66. In the case of EIFSNPSVYHESMK, the amyloid nucleation score was -0.072 ± 1.2.

Turning to EITFPRAMWANRTTTMDRIM, the amyloid nucleation score was -0.036 ± 0.4. For EKDVAIFLDLGYFHCTRSST, the amyloid nucleation score turned out to be 1.97 ± 0.2. As for EKWGGGVM, the amyloid nucleation score is -0.08 ± 0.58.

For the substance ELEPCDPGF, the amyloid nucleation score entry was “inactive”.

In turn, ELKSAFCWRARLG yielded an amyloid nucleation score of 0.197 ± 0.49. Regarding ELLCLNL, the amyloid nucleation score was -0.83 ± 0.73. Regarding ELLEILFCSTIVERKNHRRP, the amyloid nucleation score is 2.11 ± 0.11. For ELLFFYYMSSNCFVFISCSQ, the amyloid nucleation score was 1.59 ± 0.38. In turn, ELSSLGTCNCFHIRVSWGYM showed an amyloid nucleation score of 0.99 ± 0.37. As for EMNLSLSVCALFRFIT, the amyloid nucleation score is -0.56 ± 0.43. EMSINLRNL displayed an amyloid nucleation score of 0.558 ± 0.16. Turning to ENDYITCQMSQSVQNVVVVK, the amyloid nucleation score came to 0.647 ± 0.43.

The substance EPMMLY returned an amyloid nucleation score of 0.333 ± 0.28. Regarding EQASVIKDVYFPHILRLRMA, the amyloid nucleation score was -0.432 ± 0.4. With EQQLQRM the entry was “inactive”. Consider ERDCPYRTMGLRCVNYRFRG, for which the amyloid nucleation score worked out at 3.64 ± 0.14.

The substance ERGII gave an amyloid nucleation score of 0.621 ± 0.39. ERGMEVLCNYENKGL yielded an amyloid nucleation score of 0.918 ± 0.6. For the substance ERHMYMSCWFTNY, the amyloid nucleation score was 0.777 ± 0.21. Turning to ERIIRKAC, the amyloid nucleation score was 0.338 ± 1.4. In the case of ERMSRLCSQSGARRKCGAGC, the amyloid nucleation score was found to be 1.01 ± 0.64. The substance ERPSRN came in with an amyloid nucleation score of 0.22 ± 0.93.

In the case of ERYSMLDGFGSDLNWIIYNN, the amyloid nucleation score came to 0.978 ± 0.71. ESFILVFGGCCNWFGCVYLM: the amyloid nucleation score came out at 6.537 ± 0.06. ESFTPSRSTNVRI registered an amyloid nucleation score of -1.24 ± 0.94. Turning to ESLFPVCGEMTVTCPLSPTE, the amyloid nucleation score amounted to 0.423 ± 1.4.

As to ESMRFHRGEVGPLWDVRWGA, the amyloid nucleation score was 1.61 ± 0.78.

ESQLVTAYEH showed an amyloid nucleation score of 0.324 ± 1.1. For ESRLLYSFRWVGERAVPSAN, the amyloid nucleation score was 0.4 ± 0.58. ESVTWSWE displayed an amyloid nucleation score of 0.505 ± 0.39. On to ETHGYFVYVFVCGRWAGMK, for which the amyloid nucleation score was -0.114 ± 0.28.

With ETLSSFI, the amyloid nucleation score came out at 0.032 ± 0.28. With ETNLFVLNVNNVLVVFWCPP the figure was 6.938 ± 0.046; with ETRYPPRVNSVYTVWPMYLL, 0.464 ± 0.43; with EVADVGKMMIVVGDCRVFRW, 5.593 ± 0.048. The substance EVISPFQLSSDVGGMSRLGV came in with an amyloid nucleation score of 0.73 ± 0.72. Take EVMDTLYLLLVCRYFAKCIT: the amyloid nucleation score entry was “inactive”. For the substance EVRLPQTYLVEWGTNQFRF, the amyloid nucleation score is -0.504 ± 0.57. On to EVSHT, for which the amyloid nucleation score came out at 0.428 ± 0.25. EVYKHHYLA registered an amyloid nucleation score of 0.044 ± 0.47. Turning to EVYVRRRVSIQKEGVLHAQK, the amyloid nucleation score was 0.907 ± 0.97. The same measure for EWLLARMTISKRMMW: 0.587 ± 0.29; for EYICLLTDSCNDTVLFSCPR: -0.583 ± 0.83. Consider EYRFVN, for which the amyloid nucleation score was -0.227 ± 0.28. For EYSVYDRYRPGNCCRTSRMD, the amyloid nucleation score came out at 0.251 ± 0.31. As to EYTGSEPYLLVQVSLLNQRV, the amyloid nucleation score result was “inactive”. With FAFTIFPCYYWDLNCLRFQH the figure was 6.549 ± 0.047; with FAGLSHWKPLDGTMGVGDRV, -0.526 ± 0.41; with FAIFKSTIPINSVVWPIIMH, 0.87 ± 0.3. With FATYWVHDMAWRMSGVQMSV the figure was 0.307 ± 0.84; with FAVSRVEMNLGL, -0.117 ± 0.34; with FAWEVKTDYRWYNPWLGRAC, -0.838 ± 2.1. As for FAWGGFC, the amyloid nucleation score was -0.155 ± 0.86. With FCCMGDMYFCSDFQSVSLFL, the amyloid nucleation score came to 8.454 ± 0.065. FCCNWSCNCLRMG gave an amyloid nucleation score of 7.799 ± 0.051.

FCFGGNVGRYLMVRPCVFGY showed an amyloid nucleation score of 0.035 ± 0.71.

In the case of FCHVRTL, the amyloid nucleation score is -0.97 ± 1.7. FCNWAL had an amyloid nucleation score of -0.18 ± 0.5. The same measure for FCRDVSVYLDYLDGPRSGWS: -0.245 ± 0.35; for FCRGKPRRLVP: -0.219 ± 0.67. For FCRHLGLSS, the amyloid nucleation score worked out at 1.25 ± 0.44. FCVGYRCWMYN registered an amyloid nucleation score of -0.086 ± 0.25. Substance FCVRTEYSGGELAARSLDFA showed an amyloid nucleation score of 0.498 ± 0.97. FCVRWILPLDISMGDRHSSE: the amyloid nucleation score worked out at 0.592 ± 0.49. As to FCYYKCNESGP, the amyloid nucleation score was -0.751 ± 0.71. FDANGVCSSITSCM registered an amyloid nucleation score of -0.359 ± 0.53.

FDGFRGNG: the amyloid nucleation score was determined as 0.487 ± 0.49.

In the case of FDHSG, the amyloid nucleation score result was “inactive”. FDIVDANKGAAPGKTVYLWR returned an amyloid nucleation score of 0.641 ± 0.93. In turn, FDTGGVRRRCACVSLYGVDV had an amyloid nucleation score of 0.027 ± 0.43. As to FDVGSFTGIGV, the amyloid nucleation score worked out at 0.115 ± 0.77. Regarding FEGLVQL, the amyloid nucleation score result is “inactive”. The same measure for FEGRGFKDNATQENNSEFAS: 0.4 ± 0.46; for FENDWNLINLLGF: 1.49 ± 0.55; for FERSW: “inactive”. The substance FESTPLVGHTRASSRYCARF showed an amyloid nucleation score of -0.742 ± 2.1.

Substance FFCRFGILFSTKGFLGFMRF registered an amyloid nucleation score of 1.01 ± 0.67. The substance FFFNCMRWSCMKVDHTGFVG displayed an amyloid nucleation score of -0.255 ± 0.47. Substance FFGFCSSVES registered an amyloid nucleation score of 0.662 ± 0.51.

The substance FFHSAYCFCNNLPMGLDLWS yielded an amyloid nucleation score of 5.81 ± 0.083. The same measure for FFIDMCEL: -0.897 ± 0.53.

In turn, FFILRNQRPIC displayed an amyloid nucleation score of 1.76 ± 0.2. With FFLRSPFL, the amyloid nucleation score came to 0.016 ± 0.41. FFMIRRMLVTGWARQCIPRY gave an amyloid nucleation score of -0.105 ± 0.75. For the substance FFMLGSSY, the amyloid nucleation score result was “inactive”.

In turn, FFNYRVMKRHYSVYLCVGSM came in with an amyloid nucleation score of 1.18 ± 0.14. For the substance FFSKNT, the amyloid nucleation score is -0.041 ± 0.26.

Substance FFTVSVYLHVRGVAYESAAA came in with an amyloid nucleation score of 0.252 ± 0.32.

Substance FFVLRLSLTFWSCKS returned an amyloid nucleation score of 1.3 ± 0.56. Regarding FFVPSYLPFMMFHVLSCRDF, the amyloid nucleation score was -0.417 ± 0.45.

FFWLVAK: the amyloid nucleation score was -1.18 ± 1.2. In turn, FFWNRWRRTQRANTMLMMRM came in with an amyloid nucleation score of 0.402 ± 0.68.

The substance FGDWGCRRRNVSA returned an amyloid nucleation score of -0.269 ± 0.37. With FGEYSCGRREMPYCFLDYYL the figure was 0.356 ± 0.41; with FGFTGLTSW, -0.146 ± 1.4. With FGFVSPGPY, the amyloid nucleation score is -0.611 ± 0.51.

Consider FGIIGEERNLRAAPMAGGRP, for which the amyloid nucleation score was -0.455 ± 1.2. Take FGLYVYLPEGRHACVALRTV: the amyloid nucleation score is -0.89 ± 0.88. Regarding FGNRFEYRFERTN, the amyloid nucleation score is -0.482 ± 1.1. With FGPMLHTLDLCWRGMWIS, the amyloid nucleation score was -1.56 ± 2.7. FGPNVSFR registered an amyloid nucleation score of -0.638 ± 0.54. For the substance FGVNCNYCLILVQCMC, the amyloid nucleation score is 2.35 ± 0.52. The substance FGVSVLCSEWGTPRFVCWVN had an amyloid nucleation score of -0.6 ± 0.43. The substance FGWGTLIGGLWTDNEQSLFT gave an amyloid nucleation score of -0.375 ± 0.49. FGWLFVCEVSAAGPPTLIWT: the amyloid nucleation score was determined as 3.11 ± 0.15.

The substance FHMARKQETTSI had an amyloid nucleation score of -0.18 ± 1.7. For the substance FHRNHRINNRMSMAYSC, the amyloid nucleation score worked out at 0.059 ± 0.9. FHSLRLRLMRNYG showed an amyloid nucleation score of -0.31 ± 1.4. FHSMDEHVLLILTKNSV had an amyloid nucleation score of 0.317 ± 0.6. With FIESVL the figure was 1.14 ± 0.67; with FIGMTDPMSIDILLLSS, 0.389 ± 0.58. Regarding FIKHGNLSAKQPVEKDLKLD, the amyloid nucleation score is 0.414 ± 0.46. In turn, FIMIDRPETLQPNLDGLKL showed an amyloid nucleation score of -0.524 ± 0.45. Consider FIMVCGSKGLLVALGALE, for which the amyloid nucleation score is -0.752 ± 1.3.

Regarding FINLASVVSIVVLVT, the amyloid nucleation score turned out to be 4.24 ± 0.076. With FINWLPNNDHFFCRNWICLQ the figure was 5.902 ± 0.05; with FISNIFKMKMATQSGGLGVR, -0.789 ± 0.71. As for FITYRGSKVRAFLSR, the amyloid nucleation score was -1.46 ± 0.9. With FKCRACMLYDVYIAERWVTG the figure was -0.022 ± 0.37; with FKCYWAVCIELWYGCSTVGL, 0.588 ± 1.2; with FKEYQRNA, -1.04 ± 2.7. Substance FKGQSVCFDLVGWFEVLCQG returned an amyloid nucleation score of -0.381 ± 0.85. In turn, FKLAIVSIFCINSWYNESLR gave an amyloid nucleation score of 5.866 ± 0.049. With FKTDRGTRHFDFYYCV the figure was 0.395 ± 0.21. Consider FKVSVALSWDDVSQFGYGYG, for which the amyloid nucleation score came to 0.117 ± 0.65. As to FLATYLMEVYMMDSWNF, the amyloid nucleation score is -1.65 ± 1.4. FLAVIGAPNRCDFGQSMLRM: the amyloid nucleation score is 3.51 ± 0.081.

Substance FLFRGV had an amyloid nucleation score of -0.28 ± 0.91. In the case of FLIEMCYV, the amyloid nucleation score is -0.484 ± 0.88.

With FLIFKSCLVGILRSSNKIGC, the amyloid nucleation score is -0.469 ± 1.1. As to FLIYVQYTKYSLWAPVFIHR, the amyloid nucleation score entry was “inactive”.

FLKKGERTIF yielded an amyloid nucleation score of -0.446 ± 1. In the case of FLLHF, the amyloid nucleation score is -0.177 ± 0.62. Take FLMGTFDCCTVSVLFFAGK: the amyloid nucleation score was determined as 5.44 ± 0.055. On to FLQEVITDLKSVW, for which the amyloid nucleation score was 3.08 ± 0.12. As for FLQSIEGRSETGRMSRAISV, the amyloid nucleation score was 1.08 ± 0.93. Regarding FLRLAWGFLIMHEIRYAGWS, the amyloid nucleation score was 0.413 ± 1.2. As to FLSCFDILLHGVSYNSFQYW, the amyloid nucleation score was found to be 0.54 ± 0.42. On to FLSEMWTKVICWVCCCPVYA, for which the amyloid nucleation score came out at 4.64 ± 0.062. Regarding FLSTCGCFRKLGWVMCECLG, the amyloid nucleation score is -0.19 ± 0.47.
